Each block holds one substance with its values, some of them ahead of it.
Assays:
[1] = target: HER2-binding monomeric IgA2m(2) with heterogeneous complex N-glycans (human); experiment: ITC; 10 μM IgA in the cell titrated with 160 μM FcαRI from the syringe; PBS pH 7.4, 25 °C, 19 injections
[2] = target: HER2-binding monomeric IgA1 with Man3GlcNAc2 (MM) N-glycans (human); experiment: SPR; Biacore T200; IgA glycoforms captured on a Protein L chip, FcαRI glycoforms injected in single-cycle kinetics at five concentrations (31.5 to 500 nM); 1x PBS, 0.05% Tween, 0.1% BSA; 1:1 binding model; average of four independent experiments
[3] = target: HER2-binding monomeric IgA1 with terminally sialylated (NaNa) N-glycans (human); experiment: as above
[4] = target: HER2-binding monomeric IgA2m(2) with Man3GlcNAc2 (MM) N-glycans (human); experiment: as above
[5] = target: HER2-binding monomeric IgA2m(2) with sialylated (NaNa) N-glycans (human); experiment: as above
[6] = target: HER2-binding monomeric IgA1 with heterogeneous complex N-glycans, produced in HEK293F cells (human); experiment: ITC; 10 μM IgA in the sample cell titrated with 160 μM FcαRI; 25 °C; PBS, pH 7.4
[7] = target: HER2-binding monomeric IgA2m(2) with complex N-glycans (human); experiment: as above
[8] = target: HEK293F-produced IgA1-Fc deletion protein lacking the Fab domain (human); experiment: SEC-MALS; SE-HPLC-MALS, Superdex 200 10/300 GL; IgA mixed with the receptor in a molar ratio of 1:4 starting from 25 μg of IgA
[9] = target: HER2-binding monomeric IgA1 with mostly biantennary GlcNAc2Man3GlcNAc2 (GnGn) complex N-glycans (human); experiment: as above

Sequence of HEK293F-produced IgA1-Fc deletion protein lacking the Fab domain (human) (P01876 1-364, stated change not applied): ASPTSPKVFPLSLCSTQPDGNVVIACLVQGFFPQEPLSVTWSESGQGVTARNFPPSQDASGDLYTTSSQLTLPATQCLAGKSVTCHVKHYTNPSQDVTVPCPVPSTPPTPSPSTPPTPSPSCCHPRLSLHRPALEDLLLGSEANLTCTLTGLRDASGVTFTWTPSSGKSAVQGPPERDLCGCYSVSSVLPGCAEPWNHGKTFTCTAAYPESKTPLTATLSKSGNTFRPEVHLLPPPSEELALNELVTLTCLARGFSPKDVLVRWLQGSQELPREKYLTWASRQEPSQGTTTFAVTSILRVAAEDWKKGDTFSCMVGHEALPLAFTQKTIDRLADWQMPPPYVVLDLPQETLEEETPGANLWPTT

- Kd [2]: 25.2 nM
- koff [2]: 0.05 s⁻¹
- kon [2]: 1.9e+06 M⁻¹ s⁻¹
- Kd [3]: 25.8 nM
- koff [3]: 0.06 s⁻¹
- kon [3]: 2.3e+06 M⁻¹ s⁻¹
- Kd [4]: 26.2 nM
- koff [4]: 0.03 s⁻¹
- kon [4]: 1.2e+06 M⁻¹ s⁻¹
- Kd [5]: 25.2 nM
- koff [5]: 0.03 s⁻¹
- kon [5]: 1.3e+06 M⁻¹ s⁻¹
Substance: extracellular domain of human FcαRI with single GlcNAc residues at each N-glycosylation site (from UniProt P24071 22-227) (receptor)

- stoichiometry N (FcαRI per IgA) [6]: 1.3
- stoichiometry N (FcαRI per IgA) [7]: 1.3
- stoichiometry N (FcαRI per IgA1-Fc) [8]: 1
- stoichiometry N (FcαRI per IgA) [9]: 1
Substance: extracellular domain of the human FcαRI (CD89) with complex sialylated N-glycans (from UniProt P24071 22-227) (receptor)

Further lines, the substance ahead of its results:

Substance: extracellular domain of human FcαRI (CD89) with complex sialylated N-glycans (from UniProt P24071 22-227) (receptor)
- Kd [1]: 161 nM
- stoichiometry N [1]: 1.33
- Kd [2]: 187 nM
- koff [2]: 0.07 s⁻¹
- kon [2]: 350000 M⁻¹ s⁻¹
- Kd [3]: 149 nM
- koff [3]: 0.07 s⁻¹
- kon [3]: 520000 M⁻¹ s⁻¹
- Kd [4]: 225 nM
- koff [4]: 0.06 s⁻¹
- kon [4]: 280000 M⁻¹ s⁻¹
- Kd [5]: 206 nM
- koff [5]: 0.06 s⁻¹
- kon [5]: 300000 M⁻¹ s⁻¹

Substance: extracellular domain of human FcαRI with oligomannosidic N-glycans (from UniProt P24071 22-227) (receptor)
- Kd [1]: 90.7 nM
- stoichiometry N [1]: 1.36

Substance: extracellular domain of the human FcαRI with oligomannosidic N-glycans (from UniProt P24071 22-227) (receptor)
- stoichiometry N (FcαRI per IgA) [6]: 1.3
- stoichiometry N (FcαRI per IgA) [7]: 1.3

From paper PMC6755811
